Numbering of substitutions follows the chain as printed. Blank lines part the entries; values can stand above or below the binder they belong to.
Tests used:
[1] = target: T1, human CD19 on CHO-K1-human CD19 cells (human, UniProt P15391 20-556); assay: FACS on CHO-K1-human CD19 cells
T1 construct: whole, on cells; also called CHO-K1-human CD19-2C8
T1 sequence (looked up): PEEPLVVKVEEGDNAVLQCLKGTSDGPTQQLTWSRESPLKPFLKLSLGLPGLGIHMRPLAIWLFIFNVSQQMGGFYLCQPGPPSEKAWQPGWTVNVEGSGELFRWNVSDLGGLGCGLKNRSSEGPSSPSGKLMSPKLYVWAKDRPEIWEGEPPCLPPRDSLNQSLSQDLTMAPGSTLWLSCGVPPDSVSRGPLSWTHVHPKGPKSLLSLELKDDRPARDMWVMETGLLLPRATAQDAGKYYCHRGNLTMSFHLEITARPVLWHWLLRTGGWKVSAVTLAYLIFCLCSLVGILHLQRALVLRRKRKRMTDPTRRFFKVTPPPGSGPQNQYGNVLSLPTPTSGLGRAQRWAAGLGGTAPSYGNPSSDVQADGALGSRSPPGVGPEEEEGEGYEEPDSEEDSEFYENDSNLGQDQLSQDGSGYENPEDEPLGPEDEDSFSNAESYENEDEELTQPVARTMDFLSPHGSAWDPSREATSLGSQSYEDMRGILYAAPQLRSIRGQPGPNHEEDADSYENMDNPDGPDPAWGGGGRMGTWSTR
Text: (§1) The desired cells were scale-up cultured in a T-75 cell culture flask to the logarithmic growth phase. For the adherent cell CHO-K1, the medium was aspirated, the cells were washed 2 times with a PBS buffer, and then digested with trypsin. After the digestion was terminated, the cells were washed 2 times with a PBS buffer; and for suspension cell Raji, the supernatant of the medium was discarded by directly centrifugation, and the cell pellet was washed 2 times with PBS. After counting the cells in the previous step, the cell pellet was resuspended with [PBS+2% (w/w) BSA] blocking solution to 2×10⁶ cells/ml, and added to a 96-well FACS reaction plate at 50 μl/well, and then the sample to be tested was added at 50 μl/well, and incubated on ice for 2 h. The obtained mixture was centrifuged and washed 3 times with a PBS buffer. […] The obtained mixture was centrifuged and washed 5 times with a PBS buffer, and FACS (FACS Canto™, purchased from BD Company) was used for detection and result analysis. Data analysis was performed by software (FlowJo) to obtain the mean fluorescence intensity (MFI) of the cells. And then software (GraphPad Prism8) was used for analysis, data fitting, and EC50 value calculation. […] The same method was used to detect the binding of the chimeric antibodies to endogenous CD19-negative cells, MoLT4 cells (purchased from ATCC, CRL-1582), and CHO-K1 cells.

[2] = target: T2, monkey CD19 on HEK293T-monkey CD19 cells (monkey); assay: FACS on HEK293T-monkey CD19 cells
T2 construct: whole, on cells
Protocol: as §1, with “After” for “The desired cells were scale-up cultured in a T-75 cell culture flask to the logarithmic growth phase. For the adherent cell CHO-K1, the medium was aspirated, the cells were washed 2 times with a PBS buffer, and then digested with trypsin. After”
HEK293T-monkey CD19 cells were subjected to FACS detection and data analysis according to the method in example 5.2. […] The same method was used to detect binding of the chimeric antibodies to HEK293T cells.

human CD19 on Raji cells = target: T3, human CD19 on Raji cells (human, UniProt P15391 20-556); assay: FACS on Raji cells
T3 construct: whole, on cells
T3 sequence (looked up): T1 sequence (looked up)
Text: as §1

Human CD19-his protein = target: T4, Human CD19-his protein (human, UniProt P15391 20-291); assay: SPR Biacore, Ab captured on Protein A, CD19-His analyte
T4 construct: bought protein; also called recombinant human CD19-His; CD19 full-length protein; not shown: His tag
T4 sequence (looked up): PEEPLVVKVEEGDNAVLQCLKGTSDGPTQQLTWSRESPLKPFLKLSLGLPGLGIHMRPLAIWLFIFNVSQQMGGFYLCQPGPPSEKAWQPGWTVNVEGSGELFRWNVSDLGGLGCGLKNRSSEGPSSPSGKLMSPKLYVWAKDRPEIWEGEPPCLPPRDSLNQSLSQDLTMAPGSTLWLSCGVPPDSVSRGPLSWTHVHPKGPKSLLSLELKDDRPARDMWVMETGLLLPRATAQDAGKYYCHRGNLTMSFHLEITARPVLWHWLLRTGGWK
Protocol: A sample buffer and a running buffer were HBS-EP+ (10 mM HEPES, 150 mM NaCl, 3 mM EDTA and 0.05% surfactant P20) (GE Healthcare; BR-1006-69). The flow-through cell was set to 25° C. The sample block was set to 16° C. Both were pretreated with the running buffer. In each cycle, an antibody to be detected was first captured with a Protein A chip, and then a single concentration of CD19 antigen protein was injected. The binding and dissociation processes of the antibody and the antigen protein were recorded, and finally Glycine pH 1.5 (GE Healthcare; BR-1003-54) was used to complete chip regeneration. The binding was measured by injecting different concentrations of recombinant human CD19-His proteins in a solution for 240 s with a flow rate of 30 μl/min. The concentration started from 200 nM (see the detailed results for the actual concentration in the test) and was diluted at 1:1, making a total of 5 concentrations. The dissociation phase was monitored for up to 600 s and was triggered by switching from sample solution to running buffer. The surface was regenerated by washing with a 10 mM glycine solution (pH 1.5) for 30 s at a flow rate of 30 μl/min. Bulk refractive index difference was corrected by subtracting the response obtained from the goat anti-human Fc surface. Blank injection was also subtracted (=double reference). For calculation of apparent KD and other kinetic parameters, Langmuir 1:1 model was used.

B3: F4.15.9 (antibody, human IgG1, V domains shown)
VH: QVQLQQSGPELVKPGASVKISCKASGYAFSSSWMNWLKQRPGQGLEWIGRIYPGDGDTNYNGKFKGKATLTADESSSTAYMQLSSLTSVDSAVYFCARGITTIITIAWFASWGQGTLVTVSA
VL: QIVLSQSPTILSASPGEKVTMTCRASSSVSYMHWYQQKPGSSPKPWIYATSNLASGVPPRFSGSGSGTSYSLTISRVGAEDAATYYCQQWSSDPWTFGGGTKLEIK
notes: human-murine chimeric antibody, human IgG1
EC50 [1]: 0.17 nM | Maximum mean fluorescence intensity [1]: 20500 | Maximum mean fluorescence intensity [2]: 14800 | EC50 (human CD19 on Raji cells): 0.71 nM | Maximum mean fluorescence intensity (human CD19 on Raji cells): 31300

B4: F3.23.10 (antibody, human IgG1, V domains shown)
VH: EFQLQQSGPELVKPGASVKISCKASDYSFTDYNMNWVKQSNGASLEWIGIINPNFGSTSYNQKFKGKATLTVDQSSSTAFMQLNSLTSEDSAVYYCARSEYYGSSGFAYWGQGTLVTVSA
VL: DVVVTQTPLSLPVSFGDQVSISCRSSQSLVNSYGNTYLSWYLHKPGQSPQLLIYGISNRFSGVPDRFSGSGSGTDFTLKITTIKPEDLGMYYCLQGTHQPWTFGGGTKLEIK
notes: human-murine chimeric antibody, human IgG1 constant
Kd (Human CD19-his protein): 5.24 nM | koff (Human CD19-his protein): 0.000186 s⁻¹ | kon (Human CD19-his protein): 35400 M⁻¹ s⁻¹

B5: F3.23.10 (antibody, human IgG1, V domains shown)
VH: B4 VH
VL: B4 VL
notes: as for B3
EC50 [1]: 3.59 nM | Maximum mean fluorescence intensity [1]: 50400 | Maximum mean fluorescence intensity [2]: 77 | EC50 (human CD19 on Raji cells): 4.77 nM | Maximum mean fluorescence intensity (human CD19 on Raji cells): 14900

B6: F4.145.9 (antibody, human IgG1, V domains shown)
VH: EVQLVESGGGLVKPGGSLKLSCAAAGFAFSSYDMSWVRQIPEKRLEWVAYISAGGGNTYFLDTVKGRFTISRDHAKNTLSLQMSSLKSEDTAMYFCVRHGDYYRYFYAMDYWGQGSSVTVSS
VL: DIVMTQSHKFMSTSVGDRVSITCKASQDVGTAVAWSQQKPGQSPKLLIYWASTRHTGVPDRFTGSGSGTDFTLTISNVQSEDLADYFCQQFVTYPYTFGGGTKLEIK
notes: as for B3
EC50 [1]: 0.84 nM | Maximum mean fluorescence intensity [1]: 48500 | Maximum mean fluorescence intensity [2]: 108 | EC50 (human CD19 on Raji cells): 0.78 nM | Maximum mean fluorescence intensity (human CD19 on Raji cells): 20000

B9: F4.125.12 (antibody, human IgG1, V domains shown)
VH: EVKLVESGGGLVQPGGSLKLSCAASGFTFSTYTMSWVRQTPEKRLEWVAFISSGGGHINYPDTVKGRFTISRDNAKNTLYLQMSSLKSEDTAMYYCARHSYWFFDVWGAGTTVTVSS
VL: DVQITQSPSYLAASPGETITINCRASKNIDTYLAWYQEKPGKTNKLLIYSGSTLQSGIPSRFRGGGSGTDFTLTICSLEPEDFAMYYCQQHNEYPLTFGAGTKLELK
notes: as for B3
EC50 [1]: 0.48 nM | Maximum mean fluorescence intensity [1]: 51800 | Maximum mean fluorescence intensity [2]: 4080 | EC50 (human CD19 on Raji cells): 0.51 nM | Maximum mean fluorescence intensity (human CD19 on Raji cells): 27100

The remaining lines, values ahead:

EC50 [1]: 1.54 nM | Maximum mean fluorescence intensity [1]: 56200 | Maximum mean fluorescence intensity [2]: 938 | EC50 (human CD19 on Raji cells): 1.13 nM | Maximum mean fluorescence intensity (human CD19 on Raji cells): 28700
B1: F5.7.1 (antibody, human IgG1, V domains shown)
VH: QVTLKESGPGILQPSQTLSLTCSFSGFSLTTFGMGVGWIRQPSGKGLEWLTHIWWDDDKYYNPALKSRLTISKDTSKNQVFLRIANVDTADTATYYCARVITTGVPYFDYWGQGTTLTVSS
VL: ENVLTQSPAIMSASPGEKVTMTCRASSSVSSSYLYWYQQKSGASPKLWISSTSNLASGVPARFSGSGSGTSYSLTINSVEAEDAATYYCQQYSGYPWTFGGGTKLEIK
notes: as for B3

Maximum mean fluorescence intensity [1]: 10300 | EC50 [2]: 86 nM | Maximum mean fluorescence intensity [2]: 2130 | EC50 (human CD19 on Raji cells): 0.98 nM | Maximum mean fluorescence intensity (human CD19 on Raji cells): 21500
B2: F6.2.9 (antibody, human IgG1, V domains shown)
VH: QVQLQQSGAELVKPGASVKISCKASGYAFSSYWMNWVKQRPGKGLEWIGQIYPGDGDTNYNGKFKGKATLTADKSSSTGYMQLSSLTSEDSAVYFCARSRITSVVDWYFDVWGTGTTVTVSS
VL: B3 VL with T9A, P59A, G78E, D93N, W95P, G99A, I105L
notes: as for B3

Kd (Human CD19-his protein): 1.68 nM | koff (Human CD19-his protein): 6.15e-05 s⁻¹ | kon (Human CD19-his protein): 36600 M⁻¹ s⁻¹
B7: F5.11.2 (antibody, human IgG1, V domains shown)
VH: EVQLVESGGDLVKPGGSLKLSCAASGFTFSSYGMSWVRQTPDKRLEWVATISHGGSYTHYPDSVKGRFTISRDNAKNTLYLQMNSLKSEDTAMYYCVRLPITTVEAPYFFDYWGQGTTLTVSS
VL: DIQMTQTTSSLSASLGDRVTISCRASQDIRNYLNWYQQKPDGTVKLLIYYTSILHSGVPSRFSGSGSGTDYSLTINNLEQEDVATYFCQQGNTLYTFGGGTEVELR
notes: as for B4

EC50 [1]: ~0.17 nM | Maximum mean fluorescence intensity [1]: 48300 | Maximum mean fluorescence intensity [2]: 531 | EC50 (human CD19 on Raji cells): 0.17 nM | Maximum mean fluorescence intensity (human CD19 on Raji cells): 28600
B8: F6.5.20 (antibody, human IgG1, V domains shown)
VH: QVQLQQPGAELVKPGASVKLSCKASGYTFTSYWMQWVKQRPGQGLEWIGEIDPSDSYTNYNQKFKGKASLTVDTSSSTAYMQLSSLTSEDSAVYYCARWGLLRNYYVMDYWGQGTSVTVSS
VL: EIVLTQSPTTMAASPGEKITITCSASSSISSNYLHWYQQKPGFSPKLLIYRTSNLASGVPARFSGSGSGTSYSLTIGTMEAEDVATYYCQQGSSIPRMLTFGAGTKLELK
notes: as for B3

EC50 [1]: 1.24 nM | Maximum mean fluorescence intensity [1]: 49600 | Maximum mean fluorescence intensity [2]: 94 | EC50 (human CD19 on Raji cells): 0.96 nM | Maximum mean fluorescence intensity (human CD19 on Raji cells): 23700
B10: F4.180.1 (antibody, human IgG1, V domains shown)
VH: EVQLQQSAPELVKPGASVKMSCKTSGYTFTENIIHWVKQTHGKSLEWIGGINPDNGGTSYHQKFKGRTTLTIDKSSSTAYMELRSLTSDDSAVFFCARQAPLYWYFDIWGAGTTVTVSS
VL: DIVLTQSPASLAVSLGQRATISCRASESVDSYGNSLMHWFQQKPGQPPRLLIYRASNLESGIPARFSGSGSRTDFTLTITPVEADDVATYYCQQSNEDPWTFGGGTKLEIK
notes: as for B3

Source: patent US20250042994A1 (HAINAN SIMCERE ZAIMING PHARMACEUTICAL, published 2025)
